Consider 67 sequences from the supplement of paper PMC10724198.

This series concerns Saccharomyces cerevisiae. Nature of the series: protein stability index of tFT-peptide fusion (C-terminal peptide) (PSI (0-1 scale)); higher = more stable (slower turnover). To be noted: temperature: 30 C. On the procedure:
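MPS profiling in S. cerevisiae of the yeast C-terminome library: the last 12 aa of each annotated ORF are fused to the C-terminus of a sfGFP-mCherry timer, after a GGGS linker. Cells are FACS-sorted into 8 mCherry/sfGFP bins and deep-sequenced. PSI runs from 0 (unstable) to 1 (stable); wild type and das1Δ backgrounds, two technical replicates each.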

The mark [1] stands for this setting: genetic background: das1 deletion.

± gives the standard deviation of the averaged measurements.

In the case of SNKKLKSQWLIK [EMC1 C-terminal 12 aa], the protein stability index came to 0.722 ± 0.017 under setting [1] and 0.665 ± 0.0081 (genetic background: wild type).
As to SNNPKLHHAKEA [MEP3 C-terminal 12 aa], the protein stability index under setting [1] worked out at 0.696 ± 0.041 and the protein stability index (genetic background: wild type) came out at 0.375 ± 0.013.
For SQAGLMSNEEVL [CCC2 C-terminal 12 aa], the protein stability index runs as follows: under setting [1], 0.69664 ± 0.00011; (genetic background: wild type) 0.699 ± 0.022.
The matching figures for SQRPAKGVPEGF [VPS72 C-terminal 12 aa]: 0.69 ± 0.024 and 0.733 ± 0.051.
Take SRFDYLTRKNAL [CBK1 C-terminal 12 aa]: the protein stability index was 0.6716 ± 0.0016 under setting [1] and 0.71 ± 0.051 (genetic background: wild type).
SRFEVACEQKAA [BSC2 C-terminal 12 aa]: the protein stability index was 0.579 ± 0.019 under setting [1] and 0.592 ± 0.019 (genetic background: wild type).
Turning to “SRFRTNRLKGDQ [YNL042W-B C-terminal 12 aa]”, the protein stability index came out at 0.699 ± 0.027 under setting [1] and 0.689 ± 0.026 (genetic background: wild type).
In the case of SRLKKEFEAAAL [IDP2 C-terminal 12 aa], the protein stability index is, setting by setting: under setting [1], 0.6762 ± 0.0031; (genetic background: wild type) 0.678 ± 0.085.
For the sequence SSGADNSASSNQ [PAM16 C-terminal 12 aa], the protein stability index was 0.684 ± 0.014 under setting [1] and 0.667 ± 0.029 (genetic background: wild type).
The matching figures for “SSSLSPSLSSWP [YJL020W-A C-terminal 12 aa]”: 0.739 ± 0.051 and 0.778 ± 0.17.
As to SSTGTPEHDQDT [EUC1 C-terminal 12 aa], the protein stability index stood at 0.69 ± 0.0083 under setting [1] and 0.682 ± 0.025 (genetic background: wild type).
On to STATGKLKKRKM [RAD2 C-terminal 12 aa], for which the protein stability index under setting [1] was determined as 0.718 ± 0.023 and the protein stability index (genetic background: wild type) was found to be 0.649 ± 0.021.
Sequence STFSIVSSISLW [YPL044C C-terminal 12 aa] displayed a protein stability index under setting [1] of 0.6894 ± 0.0026 and a protein stability index (genetic background: wild type) of 0.665 ± 0.057.
Regarding STPIAIGIMNIL [YDR271C C-terminal 12 aa], the protein stability index reads like this: under setting [1], 0.674 ± 0.018; (genetic background: wild type) 0.697 ± 0.0089.
For the sequence STSSLKRQRTDF [REX2 C-terminal 12 aa], the protein stability index runs as follows: under setting [1], 0.718 ± 0.011; (genetic background: wild type) 0.712 ± 0.017.
As for “STTADSTTNSAN [YLR146W-A C-terminal 12 aa]”, the protein stability index is, setting by setting: under setting [1], 0.696 ± 0.014; (genetic background: wild type) 0.664 ± 0.011.
Consider SVFLLNITYLLD [YOR314W C-terminal 12 aa], for which the protein stability index is 0.236 ± 0.0099 under setting [1] and 0.268 ± 0.018 (genetic background: wild type).
In turn, SVTFFIQDILCL [YPL073C C-terminal 12 aa] showed a protein stability index under setting [1] of 0.389 ± 0.019 and a protein stability index (genetic background: wild type) of 0.407 ± 0.015.
For the sequence SWINLDFNDGDE [MDM12 C-terminal 12 aa], the protein stability index came to 0.6957 ± 0.004 under setting [1] and 0.67488 ± 0.00028 (genetic background: wild type).
As for SYRVMQPNEFES [YGL214W C-terminal 12 aa], the protein stability index by setting is: under setting [1], 0.7 ± 0.016; (genetic background: wild type) 0.711 ± 0.11.
TAAQILKKQNRL [YDR541C C-terminal 12 aa] gave a protein stability index under setting [1] of 0.6454 ± 0.0021 and a protein stability index (genetic background: wild type) of 0.704 ± 0.063.
In the case of TALLENDANLIS [ERV15 C-terminal 12 aa], the protein stability index reads like this: under setting [1], 0.703 ± 0.019; (genetic background: wild type) 0.703 ± 0.021.
In the case of TALNSGRSRDVK [YJL027C C-terminal 12 aa], the protein stability index is 0.6821 ± 0.0027 under setting [1] and 0.678 ± 0.019 (genetic background: wild type).
The matching figures for TCLTGEVIFPPR [NPC2 C-terminal 12 aa]: 0.7115 ± 0.0058 and 0.72 ± 0.017.
TDGLNVWKTISV [RRB1 C-terminal 12 aa]: the protein stability index was 0.661 ± 0.023 under setting [1] and 0.6468 ± 0.0058 (genetic background: wild type).
Regarding TEDKNKALESAQ [VPS60 C-terminal 12 aa], the protein stability index runs as follows: under setting [1], 0.702 ± 0.013; (genetic background: wild type) 0.6706 ± 0.0056.
For the sequence TEDQFKENGVKK [ICL1 C-terminal 12 aa], the protein stability index runs as follows: under setting [1], 0.703 ± 0.033; (genetic background: wild type) 0.716 ± 0.065.
The matching figures for TEEMKDAEEMKQ [RIX7 C-terminal 12 aa]: 0.685 ± 0.014 and 0.661 ± 0.017.
Turning to TEFMNFWINVLP [RSC4 C-terminal 12 aa], the protein stability index by setting is: under setting [1], 0.725 ± 0.028; (genetic background: wild type) 0.715 ± 0.02.
For the sequence TFEELWNGVEGI [ARH1 C-terminal 12 aa], the protein stability index stood at 0.722 ± 0.016 under setting [1] and 0.682 ± 0.038 (genetic background: wild type).
For TFGKCILDGFKA [SCM4 C-terminal 12 aa], the protein stability index reads like this: under setting [1], 0.709 ± 0.017; (genetic background: wild type) 0.687 ± 0.05.
Take TGQVGVPTISQV [NCE102 C-terminal 12 aa]: the protein stability index was 0.687 ± 0.021 under setting [1] and 0.6819 ± 0.0068 (genetic background: wild type).
On to THENIHQKFVQF [SFB3 C-terminal 12 aa], for which the protein stability index is, setting by setting: under setting [1], 0.7294 ± 0.004; (genetic background: wild type) 0.6358 ± 0.0022.
In the case of THTHHNPNPTLF [YNL338W C-terminal 12 aa], the protein stability index by setting is: under setting [1], 0.707 ± 0.011; (genetic background: wild type) 0.716 ± 0.075.
The matching figures for TILFMLVLYTIV [YDL241W C-terminal 12 aa]: 0.222 ± 0.017 and 0.222 ± 0.023.
The matching figures for TKVIQVQKKCIQ [IRC14 C-terminal 12 aa]: 0.688 ± 0.026 and 0.672 ± 0.032.
TKVYFLGRDSSV [NDE2 C-terminal 12 aa] had a protein stability index under setting [1] of 0.688 ± 0.013 and a protein stability index (genetic background: wild type) of 0.6764 ± 0.0011.
Consider TLIDYFIENDGL [LYS5 C-terminal 12 aa], for which the protein stability index stood at 0.7227 ± 0.0034 under setting [1] and 0.761 ± 0.092 (genetic background: wild type).
With TLRGLSNAFPTD [MME1 C-terminal 12 aa], the protein stability index by setting is: under setting [1], 0.7057 ± 0.0043; (genetic background: wild type) 0.703 ± 0.013.
The matching figures for TPKYVESDEDDQ [TOF2 C-terminal 12 aa]: 0.654 ± 0.041 and 0.7196 ± 0.0037.
As for TQSPADFSSQNH [NHX1 C-terminal 12 aa], the protein stability index is 0.74 ± 0.021 under setting [1] and 0.701 ± 0.021 (genetic background: wild type).
For “TRGEATLRANYQ [YOR008W-B C-terminal 12 aa]”, the protein stability index was 0.6862 ± 0.003 under setting [1] and 0.73 ± 0.055 (genetic background: wild type).
As for TRGPRRKLPTRV [BSP1 C-terminal 12 aa], the protein stability index by setting is: under setting [1], 0.6863 ± 0.0066; (genetic background: wild type) 0.672 ± 0.06.
The matching figures for TSIEEDLASKSE [RTA1 C-terminal 12 aa]: 0.689 ± 0.02 and 0.676 ± 0.008.
As to TSSQYEGVALGM [EAF3 C-terminal 12 aa], the protein stability index stood at 0.695 ± 0.013 under setting [1] and 0.669 ± 0.0083 (genetic background: wild type).
Consider TTHGLKQKLQHA [RTN2 C-terminal 12 aa], for which the protein stability index is, setting by setting: under setting [1], 0.701 ± 0.011; (genetic background: wild type) 0.698 ± 0.024.
Take TTRYAKEMNIIS [HIR2 C-terminal 12 aa]: the protein stability index reads like this: under setting [1], 0.694 ± 0.031; (genetic background: wild type) 0.705 ± 0.054.
For TVSSVESVLAHL [AHP1 C-terminal 12 aa], the protein stability index is, setting by setting: under setting [1], 0.728 ± 0.016; (genetic background: wild type) 0.7489 ± 0.0029.
As for VACDSDSSSTIE [YEN1 C-terminal 12 aa], the protein stability index is, setting by setting: under setting [1], 0.679 ± 0.016; (genetic background: wild type) 0.699 ± 0.014.
VATYLREHEYDQ [AAP1 C-terminal 12 aa]: the protein stability index is, setting by setting: under setting [1], 0.6847 ± 0.0021; (genetic background: wild type) 0.7314 ± 0.0051.
Consider VDFIKEFAEKNA [SER1 C-terminal 12 aa], for which the protein stability index by setting is: under setting [1], 0.708 ± 0.011; (genetic background: wild type) 0.706 ± 0.014.
Turning to VDIRSFRQDMDL [YJR056C C-terminal 12 aa], the protein stability index under setting [1] worked out at 0.703 ± 0.021 and the protein stability index (genetic background: wild type) worked out at 0.664 ± 0.017.
With VDNFISVLKQGQ [LOS1 C-terminal 12 aa], the protein stability index reads like this: under setting [1], 0.7081 ± 0.0044; (genetic background: wild type) 0.668 ± 0.0073.
Consider VDVLKLNDPTRH [BCY1 C-terminal 12 aa], for which the protein stability index stood at 0.716 ± 0.031 under setting [1] and 0.706 ± 0.042 (genetic background: wild type).
VEAVKRVLTKKF [IMG2 C-terminal 12 aa]: the protein stability index is 0.6883 ± 0.0047 under setting [1] and 0.694 ± 0.012 (genetic background: wild type).
For the sequence VFDENMYSKYSS [BRO1 C-terminal 12 aa], the protein stability index runs as follows: under setting [1], 0.712 ± 0.012; (genetic background: wild type) 0.712 ± 0.032.
With “VFLVISQHSLHS [YDR545C-A C-terminal 12 aa]”, the protein stability index runs as follows: under setting [1], 0.6541 ± 0.0036; (genetic background: wild type) 0.652 ± 0.011.
Turning to VGADSYAEEEEF [TUB1 C-terminal 12 aa], the protein stability index runs as follows: under setting [1], 0.687 ± 0.032; (genetic background: wild type) 0.676 ± 0.032.
In the case of VGDIVWKIRNIN [TTI1 C-terminal 12 aa], the protein stability index by setting is: under setting [1], 0.689 ± 0.026; (genetic background: wild type) 0.1985 ± 0.0019.
As for VGDLEAGLRRKK [IMG1 C-terminal 12 aa], the protein stability index was found to be 0.712 ± 0.0076 under setting [1] and 0.6655 ± 0.0024 (genetic background: wild type).
The matching figures for VHCGCRGCASTD [BUD31 C-terminal 12 aa]: 0.669 ± 0.0018 and 0.673 ± 0.017.
The sequence VIDLDNSVAREV [MDL1 C-terminal 12 aa] came in with a protein stability index under setting [1] of 0.7044 ± 0.0069 and a protein stability index (genetic background: wild type) of 0.64 ± 0.007.
Consider VILMVDFTLVGP [YDR262W C-terminal 12 aa], for which the protein stability index turned out to be 0.429 ± 0.023 under setting [1] and 0.426 ± 0.0078 (genetic background: wild type).
Regarding VKKLLEIRSKSS [GTT2 C-terminal 12 aa], the protein stability index reads like this: under setting [1], 0.681 ± 0.0073; (genetic background: wild type) 0.369 ± 0.0065.
In the case of VKKLVTDMLAKI [CFT2 C-terminal 12 aa], the protein stability index is 0.6957 ± 0.00094 under setting [1] and 0.669 ± 0.029 (genetic background: wild type).
VLSFNPKVWLLV [YAR068W C-terminal 12 aa] had a protein stability index under setting [1] of 0.562 ± 0.0081 and a protein stability index (genetic background: wild type) of 0.0978 ± 0.0096.
In turn, VNGELKYVKPED [AFT1 C-terminal 12 aa] returned a protein stability index under setting [1] of 0.6945 ± 0.0046 and a protein stability index (genetic background: wild type) of 0.6909 ± 0.0017.
